Consider 27 molecules from US20210403595 (published 2021).

In assay [1] the target is human CD3 on Jurkat cells (human). Nature of the assay: FACS. Background: In flow cytometry, cells or beads pass a laser one at a time.
The target of assay [2] is human CD3 epsilon/delta heterodimer, Fc-tagged (human). Nature of the assay: SPR, 37C. In general terms: Surface plasmon resonance follows binding to a sensor surface in real time, without labels.
Assay [3] deals with T1, cynomolgus CD3 on T cells (cynomolgus monkey).
T1 chain: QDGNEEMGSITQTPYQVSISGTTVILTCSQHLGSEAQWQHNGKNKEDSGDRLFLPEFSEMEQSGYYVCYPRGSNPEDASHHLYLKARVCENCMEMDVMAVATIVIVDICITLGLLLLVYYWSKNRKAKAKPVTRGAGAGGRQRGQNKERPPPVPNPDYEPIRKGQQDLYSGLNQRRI
Put plainly: FACS.

Another assay deals with human PSMA on cells (human). Put plainly: FACS, B16F10.9/PSMA.
human PSMA on cells (human), sequence (A4UU12 whole entry): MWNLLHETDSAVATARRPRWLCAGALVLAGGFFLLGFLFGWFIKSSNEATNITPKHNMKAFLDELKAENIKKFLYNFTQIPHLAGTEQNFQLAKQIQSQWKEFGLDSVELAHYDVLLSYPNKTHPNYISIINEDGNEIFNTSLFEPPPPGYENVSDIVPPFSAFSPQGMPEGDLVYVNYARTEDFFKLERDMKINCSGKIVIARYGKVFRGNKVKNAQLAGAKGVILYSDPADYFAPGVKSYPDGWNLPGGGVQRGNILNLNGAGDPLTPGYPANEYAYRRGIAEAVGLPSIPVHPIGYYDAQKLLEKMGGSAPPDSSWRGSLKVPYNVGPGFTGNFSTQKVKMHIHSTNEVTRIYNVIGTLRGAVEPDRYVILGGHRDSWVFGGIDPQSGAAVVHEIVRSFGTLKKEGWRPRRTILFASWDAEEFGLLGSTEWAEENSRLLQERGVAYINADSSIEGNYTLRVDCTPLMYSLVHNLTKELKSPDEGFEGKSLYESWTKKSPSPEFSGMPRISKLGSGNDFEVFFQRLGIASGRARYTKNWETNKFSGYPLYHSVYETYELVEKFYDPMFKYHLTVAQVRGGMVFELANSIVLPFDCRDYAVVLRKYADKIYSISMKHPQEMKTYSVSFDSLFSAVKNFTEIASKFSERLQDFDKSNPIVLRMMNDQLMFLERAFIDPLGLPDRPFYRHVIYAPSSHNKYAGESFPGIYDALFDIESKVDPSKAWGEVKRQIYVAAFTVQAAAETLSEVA

human CD3 epsilon/delta heterodimer, Fc-tagged (human), sequence (chain, as listed by the source mutant, chain 1 of 2): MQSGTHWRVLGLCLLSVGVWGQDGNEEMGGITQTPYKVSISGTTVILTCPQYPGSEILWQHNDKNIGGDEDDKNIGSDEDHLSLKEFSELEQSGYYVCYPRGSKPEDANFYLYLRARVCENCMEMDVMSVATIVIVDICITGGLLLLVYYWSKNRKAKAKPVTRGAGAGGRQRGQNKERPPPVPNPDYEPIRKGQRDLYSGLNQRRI
human CD3 epsilon/delta heterodimer, Fc-tagged (human), sequence (chain, as listed by the source mutant, chain 2 of 2): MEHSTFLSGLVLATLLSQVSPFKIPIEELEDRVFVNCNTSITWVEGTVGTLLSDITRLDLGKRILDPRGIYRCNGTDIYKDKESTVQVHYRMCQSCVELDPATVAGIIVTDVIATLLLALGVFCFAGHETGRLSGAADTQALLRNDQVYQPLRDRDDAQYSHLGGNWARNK
human CD3 on Jurkat cells (human), sequence (chain, as listed by the source, chain 1 of 2): as the sequence (chain, as listed by the source mutant, chain 1 of 2) above
human CD3 on Jurkat cells (human), sequence (chain, as listed by the source, chain 2 of 2): as the sequence (chain, as listed by the source mutant, chain 2 of 2) above

B1: BSPSMA/CD3-1900 CD3 arm (antibody, V domains shown)
VH: EVQLVESGGGLVQPGRSLRLSCAASGFTFDDYSMHWVRQAPGKGLEWVSGISWNSGSIGYADSVKGRFTISRDNAKNSLYLQMNSLRAEDTALYYCAKDGSGYGKFYHYGMDVWGQGTTVTVSS
VL: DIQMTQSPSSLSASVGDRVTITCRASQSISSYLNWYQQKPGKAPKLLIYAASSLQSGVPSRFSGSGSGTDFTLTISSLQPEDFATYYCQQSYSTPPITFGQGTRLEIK
As usually defined, the EC50 is the concentration needed to bring the measured effect to its halfway point. A high value points to weaker potency. The term Kd denotes the free concentration of one partner at which half of the binding sites on the other are occupied at equilibrium, for simple one-to-one binding. A lower Kd goes with higher affinity. In turn, B1 returned an EC50 in assay [1] of 60.7 nM. Further, in assay [2], binding was characterised by a dissociation constant (Kd) of 115 nM. Also, the binding result in assay [3] is on record as “no binding”.

B2: BSPSMA/CD3-1200 CD3 arm (antibody, V domains shown)
VH: EVQLVESGGGLVQPGRSLRLSCAASGFTFDDYSMHWVRQAPGKGLEWVSGISWNSGSIGYADSVKGRFTISRDNAKNSLYLQMNSLRAEDTALYYCAKDGSGYGKFYHYGLDVWGQGTTVTVSS
VL: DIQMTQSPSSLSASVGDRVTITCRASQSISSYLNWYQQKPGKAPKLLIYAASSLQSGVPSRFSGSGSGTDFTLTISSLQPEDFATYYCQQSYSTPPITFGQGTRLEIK
In assay [1], B2 came in with a 50% effective concentration (EC50) of 47.2 nM. The Kd in assay [2] came to 64.2 nM. For the same molecule, in assay [3], the binding result is “no binding”.

B3: BSPSMA/CD3-1500 CD3 arm (antibody, V domains shown)
VH: EVQLVESGGGLVQPGRSLRLSCAASGFTFDDYSMHWVRQAPGKGLEWVSGISWNSGSKGYADSVKGRFTISRDNAKNSLYLQMNSLRAEDTALYYCAKDGSGYGKFYYYGLDVWGQGTTVTVSS
VL: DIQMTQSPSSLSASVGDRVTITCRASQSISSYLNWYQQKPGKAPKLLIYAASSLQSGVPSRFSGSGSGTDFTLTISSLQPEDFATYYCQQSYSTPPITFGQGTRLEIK
B3: the midpoint of the response in assay [1], the EC50, lay at 93 nM. In assay [2], this molecule gave a Kd of 82.9 nM. The binding result in assay [3] is on record as “no binding”.

B4: BSPSMA/CD3-1000 CD3 arm (antibody, V domains shown)
VH: EVQLVESGGGLVQPGRSLRLSCAASGFTFDDYSMHWVRQAPGKGLEWVSGISWNSGSKGYADSVKGRFTISRDNAKNSLYLQMNSLRAEDTALYYCAKYGSGYGKFYYYGLDVWGQGTTVTVSS
VL: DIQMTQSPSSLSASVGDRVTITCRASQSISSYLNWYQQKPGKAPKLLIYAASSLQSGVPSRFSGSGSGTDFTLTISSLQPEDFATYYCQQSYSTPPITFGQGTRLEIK
As for B4, the EC50 in assay [1] was determined as 277 nM. In assay [2], this molecule displayed a Kd of 185 nM. Moreover, the binding result in assay [3] is “no binding”.

B5: BSPSMA/CD3-2100 CD3 arm (antibody, V domains shown)
VH: EVQLVESGGGLVQPGRSLRLSCAASGFTFDDYSMHWVRQAPGKGLEWVSGISWNSGSKGYADSVKGRFTISRDNAKNSLYLQMNSLRAEDTALYYCAKDGSGYGKFYYYGMDVWGQGTTVTVSS
VL: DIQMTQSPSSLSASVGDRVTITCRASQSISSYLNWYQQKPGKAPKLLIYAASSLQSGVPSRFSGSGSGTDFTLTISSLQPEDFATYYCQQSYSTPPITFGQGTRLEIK
B5 gave an EC50 in assay [1] of 106 nM. For the same molecule, in assay [2], the affinity, expressed as Kd, was 77.5 nM. Further, the binding result in assay [3] is given as “no binding”.

B6: BSPSMA/CD3-900 CD3 arm (antibody, V domains shown)
VH: EVQLVESGGGLVQPGRSLRLSCAASGFTFDDYSMHWVRQAPGKGLEWVSGISWNSGSKGYADSVKGRFTISRDNAKNSLYLQMNSLRAEDTALYYCAKDGSGYGKFYHYGLDVWGQGTTVTVSS
VL: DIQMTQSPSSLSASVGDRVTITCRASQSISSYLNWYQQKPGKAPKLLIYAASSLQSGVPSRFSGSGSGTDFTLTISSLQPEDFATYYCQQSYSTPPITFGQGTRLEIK
As for B6, a half-maximal effect in assay [1] (EC50) was put at 274 nM. This molecule also displayed a Kd in assay [2] of 113 nM. In addition, the binding result in assay [3] is listed as “no binding”.

B7: BSPSMA/CD3-1600 CD3 arm (antibody, V domains shown)
VH: EVQLVESGGGLVQPGRSLRLSCAASGFTFDDYSMHWVRQAPGKGLEWVSGISWNSGSKGYADSVKGRFTISRDNAKNSLYLQMNSLRAEDTALYYCAKDGSGYGKFYHYGMDVWGQGTTVTVSS
VL: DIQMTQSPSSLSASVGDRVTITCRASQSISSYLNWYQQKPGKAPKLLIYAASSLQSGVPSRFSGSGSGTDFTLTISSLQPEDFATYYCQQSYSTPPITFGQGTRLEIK
In turn, B7 returned a 50% effective concentration (EC50) in assay [1] of 56.8 nM. In assay [2], this molecule displayed a Kd of 37.8 nM. Moreover, in assay [3], the binding result is on record as “no binding”.

B8: BSPSMA/CD3-001 CD3 arm (antibody, V domains shown)
VH: EVQLVESGGGLVQPGRSLRLSCVASGFTFADFTMHWVRQAPGKGLEWVSGISWNSNSIDYADSVKGRFTISRDNAKKSLFLQMSSLRAEDTALYYCVKDRSGYSRFYYGMDVWGQGTTVTVSS
VL: EIVMTQSPATLSVSPGERAILSCRASQNINSNLAWYQQKPGQAPRLLIYGASTRATGVPARFSGSGSGTEFTLTIRSLQSEDFAVYYCQQYYNWPITFGHGTRLEIK
In assay [1], B8 showed an EC50 of 39.1 nM.

B9: BSPSMA/CD3-1400 PSMA arm (antibody, V domains shown)
VH: QVQLVESGGGVVQPGRSLRLSCAASGFTFSSYGMHWVRQAPGKGLEWVAVISYAGNNKYYADSVKGRFTVSRDNSKKTLYLQMNSLRSEDTAVYYCAKDSYYDFLTDPDVLDIWGQGTMVTVSS
VL: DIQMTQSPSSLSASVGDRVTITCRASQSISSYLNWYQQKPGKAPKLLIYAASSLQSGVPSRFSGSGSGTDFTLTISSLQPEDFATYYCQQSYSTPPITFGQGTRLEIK
In the assay with human PSMA on cells, B9 yielded an EC50 of 1.3 nM.

B10: BSPSMA/CD3-005 PSMA arm (antibody, V domains shown)
VH: QVQLVESGGGVVQPGRSLRLSCAASGFTFSSYGMHWVRQAPGKGLEWVAVISYAGNNKYYADSVKGRFTVSRDNSKKTLYLQMNSLRSEDTAVYYCAKDSYYDFLTDPDVLDIWGQGTMVTVSS
VL: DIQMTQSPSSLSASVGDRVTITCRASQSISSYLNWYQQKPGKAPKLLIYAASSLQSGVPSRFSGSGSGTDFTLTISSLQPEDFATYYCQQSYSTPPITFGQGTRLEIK
For the molecule B10, the EC50 with human PSMA on cells was 2.09 nM.

B11: BSPSMA/CD3-004 PSMA arm (antibody, V domains shown)
VH: QVQLVESGGGVVQPGRSLRLSCAASGFTFSSYGMHWVRQAPGKGLEWVAVISYAGNNKYYADSVKGRFTVSRDNSKKTLYLQMNSLRSEDTAVYYCAKDSYYDFLTDPDVLDIWGQGTMVTVSS
VL: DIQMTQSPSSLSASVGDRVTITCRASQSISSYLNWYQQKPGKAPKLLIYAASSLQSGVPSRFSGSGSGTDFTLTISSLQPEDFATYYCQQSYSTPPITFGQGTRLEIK
B11 displayed an EC50 in the assay with human PSMA on cells of 1.31 nM.

B12: BSPSMA/CD3-1900 PSMA arm (antibody, V domains shown)
VH: QVQLVESGGGVVQPGRSLRLSCAASGFTFSSYGMHWVRQAPGKGLEWVAVISYAGNNKYYADSVKGRFTVSRDNSKKTLYLQMNSLRSEDTAVYYCAKDSYYDFLTDPDVLDIWGQGTMVTVSS
VL: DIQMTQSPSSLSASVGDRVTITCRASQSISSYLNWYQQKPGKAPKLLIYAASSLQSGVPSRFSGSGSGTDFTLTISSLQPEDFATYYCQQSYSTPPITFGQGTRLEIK
With B12, a half-maximal response in the assay with human PSMA on cells (EC50) required 1.35 nM.

B13: BSPSMA/CD3-1100 PSMA arm (antibody, V domains shown)
VH: QVQLVESGGGVVQPGRSLRLSCAASGFTFSSYGMHWVRQAPGKGLEWVAVISYAGNNKYYADSVKGRFTVSRDNSKKTLYLQMNSLRSEDTAVYYCAKDSYYDFLTDPDVLDIWGQGTMVTVSS
VL: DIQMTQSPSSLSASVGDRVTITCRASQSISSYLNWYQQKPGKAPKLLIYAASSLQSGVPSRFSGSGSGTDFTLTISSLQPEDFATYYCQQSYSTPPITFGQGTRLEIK
In the assay with human PSMA on cells, B13 returned an EC50 of 1.03 nM.

B14: BSPSMA/CD3-1300 PSMA arm (antibody, V domains shown)
VH: QVQLVESGGGVVQPGRSLRLSCAASGFTFSSYGMHWVRQAPGKGLEWVAVISYAGNNKYYADSVKGRFTVSRDNSKKTLYLQMNSLRSEDTAVYYCAKDSYYDFLTDPDVLDIWGQGTMVTVSS
VL: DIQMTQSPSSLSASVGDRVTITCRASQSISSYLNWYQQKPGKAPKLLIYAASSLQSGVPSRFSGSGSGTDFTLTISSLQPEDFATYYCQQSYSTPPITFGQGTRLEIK
B14 had an EC50 with human PSMA on cells of 1.25 nM.

B15: BSPSMA/CD3-800 PSMA arm (antibody, V domains shown)
VH: QVQLVESGGGVVQPGRSLRLSCAASGFTFSSYGMHWVRQAPGKGLEWVAVISYAGNNKYYADSVKGRFTVSRDNSKKTLYLQMNSLRSEDTAVYYCAKDSYYDFLTDPDVLDIWGQGTMVTVSS
VL: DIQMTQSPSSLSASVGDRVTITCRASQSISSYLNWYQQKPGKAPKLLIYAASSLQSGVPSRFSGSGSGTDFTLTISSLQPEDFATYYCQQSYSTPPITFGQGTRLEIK
For the molecule B15, the EC50 with human PSMA on cells worked out at 1.31 nM.

B16: BSPSMA/CD3-1800 PSMA arm (antibody, V domains shown)
VH: QVQLVESGGGVVQPGRSLRLSCAASGFTFSSYGMHWVRQAPGKGLEWVAVISYAGNNKYYADSVKGRFTVSRDNSKKTLYLQMNSLRSEDTAVYYCAKDSYYDFLTDPDVLDIWGQGTMVTVSS
VL: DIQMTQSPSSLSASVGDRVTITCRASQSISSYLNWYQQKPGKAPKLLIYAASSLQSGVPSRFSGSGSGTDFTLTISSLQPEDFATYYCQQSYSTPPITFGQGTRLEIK
In the assay with human PSMA on cells, B16 gave a concentration giving a half-maximal response (EC50) of 2.16 nM.

B17: BSPSMA/CD3-900 PSMA arm (antibody, V domains shown)
VH: QVQLVESGGGVVQPGRSLRLSCAASGFTFSSYGMHWVRQAPGKGLEWVAVISYAGNNKYYADSVKGRFTVSRDNSKKTLYLQMNSLRSEDTAVYYCAKDSYYDFLTDPDVLDIWGQGTMVTVSS
VL: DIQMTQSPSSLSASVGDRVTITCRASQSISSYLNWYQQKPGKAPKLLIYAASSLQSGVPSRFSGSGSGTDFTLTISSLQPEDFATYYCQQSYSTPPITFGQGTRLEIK
With B17, the EC50 in the assay with human PSMA on cells is 1.43 nM.

B18: BSPSMA/CD3-1000 PSMA arm (antibody, V domains shown)
VH: QVQLVESGGGVVQPGRSLRLSCAASGFTFSSYGMHWVRQAPGKGLEWVAVISYAGNNKYYADSVKGRFTVSRDNSKKTLYLQMNSLRSEDTAVYYCAKDSYYDFLTDPDVLDIWGQGTMVTVSS
VL: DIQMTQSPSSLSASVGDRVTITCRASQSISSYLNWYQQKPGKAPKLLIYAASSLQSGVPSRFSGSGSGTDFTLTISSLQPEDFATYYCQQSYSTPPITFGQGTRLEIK
The molecule B18 returned an EC50 in the assay with human PSMA on cells of 1.19 nM.

B19: BSPSMA/CD3-200 PSMA arm (antibody, V domains shown)
VH: QVQLVESGGGVVQPGRSLRLSCAASGFTFSSYGMHWVRQAPGKGLEWVAVISYAGNNKYYADSVKGRFTVSRDNSKKTLYLQMNSLRSEDTAVYYCAKDSYYDFLTDPDVLDIWGQGTMVTVSS
VL: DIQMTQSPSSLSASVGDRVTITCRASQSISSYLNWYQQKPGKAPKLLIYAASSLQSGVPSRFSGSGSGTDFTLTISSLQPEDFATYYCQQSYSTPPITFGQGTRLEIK
Molecule B19 registered an EC50 in the assay with human PSMA on cells of 1.88 nM.

B20: BSPSMA/CD3-1500 PSMA arm (antibody, V domains shown)
VH: QVQLVESGGGVVQPGRSLRLSCAASGFTFSSYGMHWVRQAPGKGLEWVAVISYAGNNKYYADSVKGRFTVSRDNSKKTLYLQMNSLRSEDTAVYYCAKDSYYDFLTDPDVLDIWGQGTMVTVSS
VL: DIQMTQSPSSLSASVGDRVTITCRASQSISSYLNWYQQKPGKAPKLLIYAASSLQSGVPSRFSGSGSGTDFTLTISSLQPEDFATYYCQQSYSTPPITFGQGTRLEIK
The molecule B20 yielded an EC50 with human PSMA on cells of 1.21 nM.

B21: BSPSMA/CD3-1700 PSMA arm (antibody, V domains shown)
VH: QVQLVESGGGVVQPGRSLRLSCAASGFTFSSYGMHWVRQAPGKGLEWVAVISYAGNNKYYADSVKGRFTVSRDNSKKTLYLQMNSLRSEDTAVYYCAKDSYYDFLTDPDVLDIWGQGTMVTVSS
VL: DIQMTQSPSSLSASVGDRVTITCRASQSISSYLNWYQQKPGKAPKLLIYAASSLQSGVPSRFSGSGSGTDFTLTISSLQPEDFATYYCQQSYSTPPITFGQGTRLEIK
In the assay with human PSMA on cells, B21 returned an EC50 of 1.34 nM.

B22: BSPSMA/CD3-400 PSMA arm (antibody, V domains shown)
VH: QVQLVESGGGVVQPGRSLRLSCAASGFTFSSYGMHWVRQAPGKGLEWVAVISYAGNNKYYADSVKGRFTVSRDNSKKTLYLQMNSLRSEDTAVYYCAKDSYYDFLTDPDVLDIWGQGTMVTVSS
VL: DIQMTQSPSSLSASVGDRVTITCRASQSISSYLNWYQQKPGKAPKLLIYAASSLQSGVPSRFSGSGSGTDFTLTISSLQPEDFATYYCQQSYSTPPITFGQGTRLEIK
In the assay with human PSMA on cells, B22 gave an EC50 of 1.72 nM.

B23: BSPSMA/CD3-003 PSMA arm (antibody, V domains shown)
VH: QVQLVESGGGVVQPGRSLRLSCAASGFTFSSYGMHWVRQAPGKGLEWVAVISYAGNNKYYADSVKGRFTVSRDNSKKTLYLQMNSLRSEDTAVYYCAKDSYYDFLTDPDVLDIWGQGTMVTVSS
VL: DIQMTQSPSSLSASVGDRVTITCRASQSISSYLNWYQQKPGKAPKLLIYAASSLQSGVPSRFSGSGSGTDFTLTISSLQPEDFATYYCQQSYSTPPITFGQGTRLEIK
The molecule B23 displayed an EC50 in the assay with human PSMA on cells of 2.26 nM.

B24: BSPSMA/CD3-2100 PSMA arm (antibody, V domains shown)
VH: QVQLVESGGGVVQPGRSLRLSCAASGFTFSSYGMHWVRQAPGKGLEWVAVISYAGNNKYYADSVKGRFTVSRDNSKKTLYLQMNSLRSEDTAVYYCAKDSYYDFLTDPDVLDIWGQGTMVTVSS
VL: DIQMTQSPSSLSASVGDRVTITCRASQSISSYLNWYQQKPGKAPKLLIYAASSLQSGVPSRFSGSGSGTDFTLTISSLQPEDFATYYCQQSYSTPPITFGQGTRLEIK
In the assay with human PSMA on cells, B24 gave an EC50 of 1.14 nM.

B25: BSPSMA/CD3-1200 PSMA arm (antibody, V domains shown)
VH: QVQLVESGGGVVQPGRSLRLSCAASGFTFSSYGMHWVRQAPGKGLEWVAVISYAGNNKYYADSVKGRFTVSRDNSKKTLYLQMNSLRSEDTAVYYCAKDSYYDFLTDPDVLDIWGQGTMVTVSS
VL: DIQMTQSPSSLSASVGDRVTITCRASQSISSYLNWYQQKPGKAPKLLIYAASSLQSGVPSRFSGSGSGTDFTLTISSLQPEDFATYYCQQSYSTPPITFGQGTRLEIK
With B25, the midpoint of the response with human PSMA on cells, the EC50, lay at 1.16 nM.

B26: BSPSMA/CD3-1600 PSMA arm (antibody, V domains shown)
VH: QVQLVESGGGVVQPGRSLRLSCAASGFTFSSYGMHWVRQAPGKGLEWVAVISYAGNNKYYADSVKGRFTVSRDNSKKTLYLQMNSLRSEDTAVYYCAKDSYYDFLTDPDVLDIWGQGTMVTVSS
VL: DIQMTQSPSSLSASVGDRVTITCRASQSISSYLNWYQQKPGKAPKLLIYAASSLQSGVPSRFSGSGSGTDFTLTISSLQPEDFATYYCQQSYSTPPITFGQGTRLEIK
On to B26, for which the response with human PSMA on cells was half-maximal at 1.03 nM (EC50).

B27: BSPSMA/CD3-300 PSMA arm (antibody, V domains shown)
VH: QVQLVESGGGVVQPGRSLRLSCAASGFTFSSYGMHWVRQAPGKGLEWVAVISYAGNNKYYADSVKGRFTVSRDNSKKTLYLQMNSLRSEDTAVYYCAKDSYYDFLTDPDVLDIWGQGTMVTVSS
VL: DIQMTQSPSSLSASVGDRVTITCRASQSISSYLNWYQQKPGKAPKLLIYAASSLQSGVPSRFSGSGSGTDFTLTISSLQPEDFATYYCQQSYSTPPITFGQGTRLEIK
In the assay with human PSMA on cells, B27 gave an EC50 of 1.9 nM.
